Laboratory results taken from publication PMC8916002 (Proceedings of the National Academy of Sciences of the …, 2022).

Tests used:
JPH1 = assay: Cocrystallization of JPH1 with phospholipids; assay type: binding, human; conditions: high ionic strength
[1] = target: T1, MBP-tagged JPH2 (1 to 161, 275 to 437) (human, UniProt Q9BR39-1 1-161; Q9BR39-1 275-437); assay: ITC
T1 chain (looked up): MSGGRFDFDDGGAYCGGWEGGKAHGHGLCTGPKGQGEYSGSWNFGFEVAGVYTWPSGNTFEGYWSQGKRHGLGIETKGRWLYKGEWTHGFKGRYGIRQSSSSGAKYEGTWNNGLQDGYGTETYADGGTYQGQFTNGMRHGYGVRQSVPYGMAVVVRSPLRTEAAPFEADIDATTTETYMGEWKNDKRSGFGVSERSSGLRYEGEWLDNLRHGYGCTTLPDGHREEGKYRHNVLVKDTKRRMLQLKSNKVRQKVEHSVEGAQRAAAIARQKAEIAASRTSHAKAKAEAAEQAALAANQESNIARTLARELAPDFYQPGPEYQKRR

[2] = target: T2, JPH2 (1 to 161, 275 to 437) (human, UniProt Q9BR39-1 1-161; Q9BR39-1 275-437); assay: ITC
T2 chain (looked up): T1 chain (looked up)

[3] = target: T3, JPH1 (1 to 175, 265 to 442) (human, UniProt Q9HDC5 1-175; Q9HDC5 265-442); assay: ITC
T3 chain (looked up): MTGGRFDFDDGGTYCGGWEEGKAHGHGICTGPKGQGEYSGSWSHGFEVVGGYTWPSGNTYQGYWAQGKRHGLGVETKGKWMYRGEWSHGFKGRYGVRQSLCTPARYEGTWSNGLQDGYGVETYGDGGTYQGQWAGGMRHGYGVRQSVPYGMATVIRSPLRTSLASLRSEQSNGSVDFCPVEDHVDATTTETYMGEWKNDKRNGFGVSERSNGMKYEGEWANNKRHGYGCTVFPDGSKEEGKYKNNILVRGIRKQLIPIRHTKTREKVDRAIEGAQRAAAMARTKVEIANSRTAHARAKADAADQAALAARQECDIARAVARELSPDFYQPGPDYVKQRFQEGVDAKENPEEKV

## CCCCCC(=O)OC[C@H](COP(=O)(O)OC[C@H](N)C(=O)O)OC(=O)CCCCC [6:0 PS]
JPH1; 2 mM 6:0 PS, diffraction data to 1.9 Å
  ligand electron density in JPH1 crystals: no significant difference density could be identified
JPH1; 2 mM 6:0 PS, diffraction data to 1.9 Å, listed as PS
  ligand electron density in JPH1 crystals: could not observe any density for a bound ligand

## CCCCCCCC(=O)OC[C@H](COP(=O)(O)O[C@@H]1[C@H](O)[C@H](O)[C@@H](OP(=O)(O)O)[C@H](OP(=O)(O)O)[C@H]1O)OC(=O)CCCCCCC [8:0 PI(4,5)P2]
JPH1; 500 μM 8:0 PI(4,5)P2, diffraction data to 2.0 Å
  ligand electron density in JPH1 crystals: no significant difference density could be identified

## EERIFRRTGGLFGQVD (peptide, UniProt P07293 1594-1609, looked up) [CaV1.1 peptide (rabbit CaV1.1 residues 1594 to 1609)]
[1]
  Kd: 1800 nM
[2]
  stoichiometry N: 1
[3]
  Kd: 1000 to 2000 nM
  stoichiometry N: 1
